Measurements taken from US20260132208A1 (DOMAIN THERAPEUTICS, published 2026).
Substitutions are numbered along the chain they refer to. Several values for one entry are separate records, joined by “and”; a condition that tells them apart may be missing. Equal entries are not always repeated.

Assays:
[1] = biological target: T1, human CCR8 (human, UniProt P51685 1-355); assay: cell-based or functional assay
[2] = biological target: T2, pm8 (Y15, Y16 and Y17 sulfated); assay: ELISA on coated peptide [cont.]
T2 construct: also called sulfated CCR8 N-terminal peptide pm8
Procedure, shortened: (§1)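 Optical density after 15 min TMB development is the read-out, correlated with antibody binding to the coated peptide. Plates carried peptide at 500 ng/ml in carbonate/bicarbonate buffer. Antibodies were incubated at 1 μg/mL and at a tenfold dilution for 90 min at room temperature, followed by washes.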

[3] = biological target: T3, pm3 (Y17 sulfated; Y15 and Y16 not sulfated); assay: ELISA on coated peptide [cont.]
T3 construct: also called sulfated CCR8 N-terminal peptide pm3
Procedure, shortened: as §1

[4] = biological target: T4, pm4 (sulfated tyrosine(s) among Y15, Y16, Y17; which ones is not told (the underlining of Table 1 is lost in the text)); assay: ELISA on coated peptide [cont.]
T4 construct: also called sulfated CCR8 N-terminal peptide pm4
Procedure, shortened: as §1

[5] = biological target: T5, pm1 (sulfated tyrosine(s) among Y15, Y16, Y17; which ones is not told (the underlining of Table 1 is lost in the text)); assay: ELISA on coated peptide [cont.]
T5 construct: also called sulfated CCR8 N-terminal peptide pm1
Procedure, shortened: as §1

[6] = biological target: T6, pwt1 (none (unmodified peptide)); assay: ELISA on coated peptide [cont.]
T6 construct: also called unmodified CCR8 N-terminal peptide
Procedure, shortened: as §1

[7] = biological target: T7, pm6 (Y16 and Y17 sulfated; Y15 not sulfated); assay: ELISA on coated peptide [cont.]
T7 construct: also called sulfated CCR8 N-terminal peptide pm6
Procedure, shortened: as §1

[8] = biological target: T8, pm2 (sulfated tyrosine(s) among Y15, Y16, Y17; which ones is not told (the underlining of Table 1 is lost in the text)); assay: ELISA on coated peptide [cont.]
T8 construct: also called sulfated CCR8 N-terminal peptide pm2
Procedure, shortened: as §1

[9] = biological target: T9, pm5 (Y15 and Y17 sulfated; Y16 not sulfated); assay: ELISA on coated peptide [cont.]
T9 construct: also called sulfated CCR8 N-terminal peptide pm5
Procedure, shortened: as §1

[10] = biological target: T1, human CCR8; assay: cell-based or functional assay; remark: listed apart in the source
[11] = biological target: T1, human CCR8; assay: cell-based or functional assay; remark: listed apart in the source
[12] = biological target: T1, human CCR8; assay: flow cytometry, inhibition of hCCL1-AF647 (10 nM) binding to hCCR8-CHO cells
Procedure, shortened: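 hCCR8-transfected CHO cells preincubated 30 min at 4 °C with anti-CCR8 mAb (8 concentrations, top 10 μg/mL, 1/3 dilutions), washed, then exposed to labelled CCL1. Bound CCL1 quantified by flow cytometry; IC₅₀ of binding blockade from sigmoidal variable-slope fit.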

[13] = biological target: T1, human CCR8; assay: flow cytometry, hCCR8-transfected CHO-K1 cells
Procedure, shortened: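 Bound mAb was detected with Alexa Fluor 488 anti-mouse IgG or PE anti-human IgG Fc by flow cytometry, with isotype controls. EC50 came from a four-parameter fit.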

[14] = biological target: T10, human CCR8 with a SNAP-tag at the N-terminus (human, UniProt P51685 1-355, SNAP-tag labelled covalently with Lumi4-Terbium); assay: cell-based or functional assay
[15] = biological target: T1, human CCR8; assay: cell-based or functional assay; remark: listed apart in the source
[16] = biological target: T10, human CCR8 with a SNAP-tag at the …; assay: HTRF Tag-lite, inhibition of hCCL1-AF647 binding to SNAP-hCCR8 on HEK-293 cells
Experimental: The inhibition of CCL1 binding to hCCR8 was evaluated with the Tag-Lite® technology from Cisbio (Revvity). Human CCR8 is engineered with a SNAP-tag at the N-terminus of the GPCR. hCCR8 SNAP-tag is transiently transfected on HEK-293 cell line using FuGene® (Promega, Madison, WI, USA). 48 hours after transfection, cells are labeled with the substrate Lumi4-Terbium® (Cisbio, Codolet, France) which covalently reacts with the SNAP-tag, for 1 h at 37° C. Thawed or freshly labeled cells are plated in a 384 low volume white plate (GREINER Bio-One, Courtaboeuf, France) (10000 cells/well/10 μl). […] The Kd was previously obtained in a saturation binding assay on the same cells. […] The plate is next incubated at 21° C. for 2 h. Detection of HTRF signal is performed on the multiplate reader EnVision (PerkinElmer, Waltham, MA, USA). The HTRF (665/620) ratio is calculated by EnVision software, the data exported are considered as the total binding. The specific binding is calculated then by subtracting the non-specific signal from the total binding. The Ki and IC₅₀ are calculated using the “One site-Fit Ki” and “One site-FitlogIC50” from GraphPad Prism 9 (Graphpad Software, San Diego, CA, USA), respectively.

[17] = biological target: T1, human CCR8; assay: cell-based or functional assay; remark: listed apart in the source

T6 sequence (peptide, as listed by the source): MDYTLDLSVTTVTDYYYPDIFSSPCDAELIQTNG
T3 sequence (peptide, as listed by the source): as above
T8 sequence (peptide, as listed by the source): as above
T2 sequence (peptide, as listed by the source): as above
T9 sequence (peptide, as listed by the source): as above
T7 sequence (peptide, as listed by the source): as above
T5 sequence (peptide, as listed by the source): as above
T4 sequence (peptide, as listed by the source): as above

B1: anti-CCR8 mAb 1-18 (antibody, V domains shown)
VH: QVQVQQSGAELARPGASVKMSCKASGYTFTTYAMHWVKQRPGQGLEWIGHINPSSGYSNYNQKFKDKATLTADKSSSTAYMQLSSLTSEDSAVYYCARSEVRRGYFDVWGAGTTVTVSS
VL: DIQMTQTTSSLSASLGDRVTISCRTSQDIRNYLNWYQQKPDGTVKLLISYTSRLHSGVPSRFSGSGSGTDYSLTISNLEQEDFATYFCQQGNTLPPTFGGGTRVEIK
notes: Murine hybridoma mAb
B1 was tested, and the “extrapolated top plateau of hCCL1 curve with 5 µg/mL mAb, protocol #3” value (“extrapolated top plateau of hCCL1 curve” for short) [1] was 948 % of hCCL1 (100 nM), the binding result [2] was “binds” and the binding result [3] was “binds”. B1: binds [4]; binds [5]; binds [6]. B1: binds [7]; binds [8]; binds [9]. The “residual hCCL1 (100 nM) Gi2 response, protocol #2, mAb 0.08 µg/mL” value (“residual hCCL1 … mAb 0.08 µg/mL” below) [10] was 52%, the “residual hCCL1 (100 nM) Gi2 response, protocol #2, mAb 0.4 µg/mL” value (shortened to “residual hCCL1 … mAb 0.4 µg/mL”) [10] was 68% and the “residual hCCL1 (100 nM) Gi2 response, protocol #2, mAb 10 µg/mL” value (“residual hCCL1 … mAb 10 µg/mL” below) [10] was 53%. For the same binder, the “residual hCCL1 (100 nM) Gi2 response, protocol #3, mAb 0.05 µg/mL” value (“residual hCCL1 … mAb 0.05 µg/mL” for short) [10] was 76%, the “residual hCCL1 (100 nM) Gi2 response, protocol #3, mAb 0.5 µg/mL” value (“residual hCCL1 … mAb 0.5 µg/mL” below) [10] was 62% and the “residual hCCL1 (100 nM) Gi2 response, protocol #3, mAb 5 µg/mL” value (from here on “residual hCCL1 … mAb 5 µg/mL”) [10] was 59%. The “IC50 of CCL1-induced hCCR8 Gi2 signaling (BRET, HEK-293)” value (“IC50 … (BRET, HEK-293)” for short) [11] was 0.004 µg/mL and 0.029 nM, the IC50 [12] was 0.22 µg/mL and 1.46 nM and the “% positive cells” value [13] was 77%. For the same binder, the “MFI fold change to isotype ctrl” value [13] was 9.2 fold.

B2: Ref #3 (antibody, human IgG1, V domains shown)
VH: EVQLVESGGGLVQPGGSLKLSCAASGFTFNTYAMNWVRQASGKGLEWVARIRSKANNYATYYADSVKDRFTISRDDSKNTLYLQMNNLKTEDTAVYYCVRDRSRGEDYAMDYWGQGTLVTVSS
VL: DIVMTQSPLSLPVTPGEPASISCRSSKSLLHSNANTYLYWFLQKPGQSPQLLIYRMSNLASGVPDRFSGSGSGTAFTLKISRVEAEDVGVYYCMQHLEYPFTFGQGTKLEIK
B2 was tested, and the “% hCCR8 internalization with CCL1 300 nM, mAb 1 µg/ml (HTRF)” value [14] was 95% and the “% hCCR8 internalization with CCL1 300 nM, mAb 10 µg/ml (HTRF)” value [14] was 103%.

B3: anti-CCR8 mAb 1-28 (antibody, human IgG1, kappa, V domains shown)
VH: EVQLVESGGGLVQPTGSLRLSCAASGFTFNAYAMNWVRQAPGKGLEWVARIRSKSNDYATYYGDSVKDRFTISRDDSQSMLYLQMNNLKTEDTAMYYCVRGREAYYRYDGGYYAMDYWGQGTSVTVSS
VL: DIVMTQAAPSVSVTPGESVSISCTSSKSLLHSNGNTYLYWFLQRPGQSPQLLIYRMSNLASGVPDRFSGSGSGTAFTLRISRVEAEDVGVYYCMQHREYPFTFGSGTKLEIKR
With B3 the “ADCC % max lysis, HUT78 targets, NK donor 1” value [15] was 31%, the “ADCC % max lysis, HUT78 targets, NK donor 2” value [15] was 26% and the “ADCC EC50, HUT78 targets, NK donor 1” value [15] was 0.0733 nM. For the same binder, the “ADCC EC50, HUT78 targets, NK donor 2” value [15] was 0.0904 nM.

B4: Ref #1 (antibody, human IgG1, V domains shown)
VH: EVQLLESGGGLVQPGGSLRLSCAASGFTFSSYGMHWVRQAPGKGLEWVSAINWNGGSTGYADSVKGRFTISRDNSKNTLYLQMNSLRAEDTAVYYCARGHHSGYDGRFFDYWGQGTLVTVSS
VL: QSVLTQPPSVSGAPGQRVTISCTGSSSNIGAGYNVHWYQQLPGTAPKLLIYTNNRRPSGVPDRFSGSKSGTSASLAISGLRSEDEADYYCAAWDASLSGWVFGGGTKLTVL
notes: Benchmark; cloned into vectors encoding heavy and light chains of human IgG1, produced in CHO; also called TPP-21360 of WO 2021/260210
In the case of B4, the “IC50 … (BRET, HEK-293)” value [11] is reported as 0.101 µg/mL and 0.675 nM, the “% hCCR8 internalization with CCL1 300 nM, mAb 1 µg/ml (HTRF)” value [14] is reported as 126% and the “% hCCR8 internalization with CCL1 300 nM, mAb 10 µg/ml (HTRF)” value [14] is reported as 111%. It also gave an IC50 [16] of 0.45 µg/mL, a Ki [16] of 0.23 µg/mL and an IC50 [12] of 0.65 µg/mL. For the same binder, the “% positive cells” value [13] was 75.1%.

B5: anti-CCR8 mAb 1-3 (antibody, V domains shown)
VH: KVQLQQSGPELVKPGASVKISCKTSGYTFTEYTIHWVQQIHGKSPEWIGGINPNGDTRYDQKFKGKATLTIDKSSSTAYMELRSLTSEDSAVYYCARVARFYGISPYAMDYWGQGTSVTVSS
VL: DVVMTQTPLSLPVSLGDQASISCRCTQSLLHSNGDTYLHWYLQKPGQSPNLLIYKVSNRFSGVPDRFSGSGSGTDFTLKINRVEAEDLGVYFCSQSTHVPYTFGGGTNLEIK
notes: Murine hybridoma mAb
For B5, the “extrapolated top plateau of hCCL1 curve” value [1] was 663 % of hCCL1 (100 nM), the binding result [2] was “binds” and the binding result [3] was “binds”. B5: binds [4]; binds [5]; binds [6]. B5: binds [7]; binds [8]; binds [9]. The “residual hCCL1 … mAb 0.08 µg/mL” value [10] was 101%, the “residual hCCL1 … mAb 0.4 µg/mL” value [10] was 93% and the “residual hCCL1 … mAb 10 µg/mL” value [10] was 100%. The “residual hCCL1 … mAb 0.05 µg/mL” value [10] was 92%, the “residual hCCL1 … mAb 0.5 µg/mL” value [10] was 81% and the “residual hCCL1 … mAb 5 µg/mL” value [10] was 73%. For the same binder, the “IC50 … (BRET, HEK-293)” value [11] was 0.069 µg/mL and 0.462 nM, the IC50 [12] was 1.29 µg/mL and 8.62 nM and the “IC50 of CCL1-induced hCCR8 Gi2 signaling (BRET), pH 6.5” value [17] was 0.051 µg/ml and 0.34 nM. The “IC50 of CCL1-induced hCCR8 Gi2 signaling (BRET), pH 7.4” value [17] was 0.059 µg/ml and 0.396 nM, the “% positive cells” value [13] was 85.7% and the “MFI fold change to isotype ctrl” value [13] was 9.8 fold.

B6: anti-CCR8 mAb 1-5 (antibody, V domains shown)
VH: QVQLKESGPGLVAPSQSLSITCTVSGLSMNDYVVTWIRQPPGKGLEWLGVIWGGGNTYYNSDLKSRLSITKDNSKSQVFFKMSSLQTDDTAVYYCARRHRDYALDYWGQGISVTVSS
VL: B5 VL with C25S, T26S, L30V, H31Y, D35N, N50K, N81S, H98Y, Y101P, N108K
notes: Murine hybridoma mAb
For B6, the “extrapolated top plateau of hCCL1 curve” value [1] was 133 % of hCCL1 (100 nM), the binding result [2] was “binds” and the binding result [3] was “binds”. B6: binds [5]; binds [6]; binds [7]. The binding result [8] was “binds”, the binding result [9] was “binds” and the “residual hCCL1 … mAb 0.08 µg/mL” value [10] was 99%. For the same binder, the “residual hCCL1 … mAb 0.4 µg/mL” value [10] was 97%, the “residual hCCL1 … mAb 10 µg/mL” value [10] was 97% and the “residual hCCL1 … mAb 0.05 µg/mL” value [10] was 99%. For the same binder, the “residual hCCL1 … mAb 0.5 µg/mL” value [10] was 84%, the “residual hCCL1 … mAb 5 µg/mL” value [10] was 75% and the “IC50 … (BRET, HEK-293)” value [11] was 0.143 µg/mL and 0.954 nM. For the same binder, the IC50 [12] was 15.2 nM and 2.65 µg/mL, the “IC50 of CCL1-induced hCCR8 Gi2 signaling (BRET), pH 6.5” value [17] was 0.414 µg/ml and 2.76 nM and the “IC50 of CCL1-induced hCCR8 Gi2 signaling (BRET), pH 7.4” value [17] was 0.359 µg/ml and 2.4 nM. The “% positive cells” value [13] was 85.2% and the “MFI fold change to isotype ctrl” value [13] was 11.9 fold.
